# Laboratory results from the DeepSol protein solubility set.
# Experiment: soluble on expression in E. coli; label from the status in PepcDB or PDB records
row,Sequence,soluble on expression in E. coli
1,MLTTLSCCCNMPVVKVNCWNNMKVQIKSITQWGGVLLLSFSSCYVNANKLIKPNILFIAVDDLKPLIRDYGTAKVQTPNIDKLASQSTVFTRAYSQYPVCGPSRMSILTGLRPESNGIMNLKDKIRDVNPSVITLPQFFKNNGYETAATGKIFDPRNTTSRSEEEVLSWSIPYQRPKHGLKGKTRLAVESIDEPDEKFVDGGILKRGKKLLKQMANKNKPFFLAVGFKKPHLPFVAPKKYYDLYSRESFDLASYQSAPEDADTTYLFHKNQELRGYKPTPIKGGEIKPYPKGKLSSAHQKELLHGYFASVSFIDSLVGELLEELEKTGQAENTVIVFWGDHGFHLGDHGLWGKHTTMEQANHVPLIIKIPGSKANRYAKPVELLDVFPSLTEAAGLSIPNNLQGTSLVSLVTGKLKSIDKVAISQYKRKGAYGYSMRTEQYRYTQWVTPSGKVVYRDLYDLINDPLETKNIINTPEGKLLEVELNKQLHTNSAGLKRLKLEHHHHHH,not soluble
2,METMCEVKVITGTSAAAEAAKLADVDVIAAYPITPQTTCVEKLAEFVANGELDAEYIKVESEHSAMSACIGAAATGARTFTATASQGLALMHEMLFIASGMRLPIVMMVANRALSAPINIWNDHQDSIAERDSGWIQIYVEDNQETLDSIIQAYKIAENEDVLLPVMVCLDGFILTHTVEPVTIPKAERVREFLGVYEPKHAYLDPDRPITQGPVGVPDCYMETRKQIEEAMERAKKVIRDVNEEFAEWFKRKY,not soluble
3,MYIGGTGVEGYHHLFKEILDNAVDEALAGYATEILVRLNEDGSLTVEDNGRGIPVDLMPEEGKPAVEVIYTTLHSGGKFEQGAYKVSGGLHGVGASVVNALSEWTVVEVFREGKHHRIAFSRGEVTEPLRVVGEAPRGKTGTRVTFKPDPEIFGNLRFDPSKIRARLREVAYLVAGLKLVFQDRQHGKEEVFLDKGGVASFAKALAEGEDLLYEKPFLIRGTHGEVEVEVGFLHTQGYNAEILTYANMIPTRDGGTHLTAFKSAYSRALNQYAKKAGLNKEKGPQPTGDDLLEGLYAVVSVKLPNPQFEGQTKGKLLNPEAGTAVGQVVYERLLEILEENPRIAKAVYEKALRAAQAREAARKARELVRRQNPLESDELPGKLADCQTENPEEAELFIVEGDSAGGSAKQGRDRRFQAILPLRGKILNVEKAGLSKALKNAEVRAMVSAIGVGIGGDGEAHFDLEGLRYHKIIIMTDADVDGSHIRTLLLTFFYRYMRPLIERGHVYIAQPPLYRLQVGKKVEYLYSDEELQARLKELEGKHYEVQRFKGLGEMNPEQLWETTMNPEKRVLKRVELQDALEASELFEKLMGQEVAPRREFIEEHARYAELDI,soluble
4,MVDSYDDSLDGEKSKTQVKRELHALVDLGERLTTLKADVLAKLPLTDALRKALAEAPKHTANIARKRHILFIGKLMRDQDQEAILVLLDQLDASTRQYNERFHNLERWRDRLIAGDDADLEKFVIEYPDADRQQLRSLIRQAQHEVARNKPPATSRKIFKYIRELDELQRGLR,not soluble
5,GSHMDLLDPVDILSKMPKDFYDKLEEKKWTLRKESLEVLEKLLTDHPKLENGEYGALVSALKKVITKDSNVVLVAMAGKCLALLAKGLAKRFSNYASACVPSLLEKFKEKKPNVVTALREAIDAIYASTSLEAQQESIVESLSNKNPSVKSETALFIARALTRTQPTALNKKLLKLLTTSLVKTLNEPDPTVRDSSAEALGTLIKLMGDKAVTPLLADVDPLKMAKIKECQEKAEIKIKVAG,soluble
6,QNKNSVELDGGAIFKNDKLIDKMDKSETEAYNFMIGKVSSGSMEVLNPETNRDFISLWILNSKTTTKGKFYGGKFHVKKIVNVKVAFLESQSPITYNKYMQKQIEQNAEKNIINNCNKIFNKYKEKNEDIFNVRDVYENIYKKGSPDIIKNTVIDIEPHVQIERSGKASTF,not soluble
7,MIQVLGTSSGSGKTTIAMALSRIFFRSGYRVAPFKAVNMSLNSVIVEGEYEIARAQWLQAKAANTEPTRFMNPILLKPEGMGASQVIMLGKSLGKKTIPEYYEFIMNDGKRVIREAIDRISDDYDLIIAEGAGSPAEINLLDRDMANIYVSSIYNTPAILVGDIDRGGVFASIYGTLSLMPRPDLVRWIMINKMRGDASLLEPGLKKLENLTGKRVIGVVPYSENRLPGEDSFDYDHPRARGSKITIVRYPFMENYSDLDPLVYTSTGYNYVTAENASDLSDADLIVLPGSKNVFADLEYMRKNGIDKIIIENAGRAKILGICGGYQMLGQRITMGEISADGLGLLRAKTNYERTKTTRSVRYRVDNTLMSGTWEEGYEIHYGAVISLGGERMNETDKGPEGNVDANRLVFGTNIHGILANRSVFRFMTGRDIGEPEEYLRSEIDRFADVVKSSIDVADLIEYASSRE,not soluble
8,MVEADHPGKLFIGGLNRETNEKMLKAVFGKHGPISEVLLIKDRTSKSRGFAFITFENPADAKNAAKDMNGTSLHGKAIKVEQAKKPSFQSGGRRRPPASSRNRSPSGSLRSARGSSGGTRGWLPSHEGHLDDGGYTPDLKMSYSRGLIPVKRGPSSRSGGPPPKKSAPSAVARSNSWMGSQGPMSQRRENYGVPPRRATISSWRNDRMSTRHDGYATNDGNHPSCQETRDYAPPSRGYAYRDNGHSNRDEHSSRGYRNHRSSRETRDYAPPSRGHAYRDYGHSRRDESYSRGYRNHRSSRETREYAPPSRGHGYRDYGHSRRHESYSRGYRNHPSSRETRDYAPPHRDYAYRDYGHSSWDEHSSRGYSYHDGYGEALGRDHSEHLSGSSYRDALQRYGTSHGAPPARGPRMSYGGSTCHAYSNTRDRYGRSWESYSSCGDFHYCDREHVCRKDQRNPPSLGRVLPDPREAYGSSSYVASIVDGGESRSEKGDSSRY,soluble
9,MGSLRLLADIQGEDLESLYGYAKQLFDGGEIAAARNVYQLLSTLDHWNFDYLLALGLCHQRLGAHNEAVVCFGRAGLIKVDDPRAAFYAGISYRLDGNAEYASKAFKAAINWCGEQIDYQAIKASAVDMLALQQEEVPLEHHHHHH,not soluble
10,SLMVLAMESRVAPEIPGLIQPGNVTQDLKMMVCKLLNSPKPTKTFPGSQPVSFQHSDVEEKLLAHDYYVCEKTDGLRVLMFIVINPVTGEQGCFMIDRENNYYLVNGFRFPRLPQKKKEELLETLQDGTLLDGELVIQTNPMTKLQELRYLMFDCLAINGRCLTQSPTSSRLAHLGKEFFKPYFDLRAAYPNRCTTFPFKISMKHMDFSYQLVKVAKSLDKLPHLSDGLIFTPVKAPYTAGGKDSLLLKWKPEQENTVDFKLILDIPMVEDPSLPKDDRNRWYYNYDVKPVFSLYVWQGGADVNSRLKHFDQPFDRKEFEILERTYRKFAELSVSDEEWQNLKNLEQPLNGRIVECAKNQETGAWEMLRFRDDKLNGNHTSVVQKVLESINDSVSLEDLEEIVGDIKRCWDERRANMAGGSGRPLPSQSQNATLSTSKPVHSQPPSNDKEPKYVDEDDWSD,soluble
11,GMQKLTRINDFNEVLNSRKSVKVFDENYKIPREEMDEIITKATKAPSSVNMQPWRIAVVQSDEMKEKVKESFGFNSRQLTTSSAMLIIFGDLQNYEKAEQIYGDAVEQQLMTEDIKAQLLDWILPYYKNLSREGMKDIVNIDSSLMAMQLMLTAKAHGYDTNPIGGFDKENIADIIGYDSDRYVPVLAIAIGKKAQDAHDSVRLPIDDVREFL,soluble
12,MFVLNIFSTTHKQRGLNRASCPPLGNYSNNHTLAYRVKCISEETRDSNSLVSSLNRKLWKTSVAGSDIPMIYSPFLEDMQNTLFASFETVEDYPLSEFLASAQSSKKPARIESWCYQCPKFRKIRLTYLDAGVAAQVFNAVWYPISSLELPILGVDFLSFGGKNVLCVMDFQPLMNDQYYLDKYIQPLHPIRERYADLAGRMSSRFYDENRFFSKELLFGRFDSTKPIYERLFPAFREYLDLYITLAKQTVEDDKSRSIIWQLQCEYDRYSAEKDPAMSLFRSYFGSTWAHRFVYEFLFENSRYESSLDNKT,soluble
13,MSLTSTIIDVRAKLYTWKGDVQKIHENFCTNAADLVNQDNISNDRWATYKFLSWLVVEVETSDGHIGIGNAALSPKPCKSVVDNYLKPAIIGESIWDYEHIWQKMYRQTLAWGRKGIGMTAISAVDIAIWDALGKTVKQPVFKLLGGKTKSKLPCYASKLYSQPLDSLAKEAKDYLDQGFKAMKLRLGWGPNDGAEGMRKNIELIRTVRSVVGEDVDLMADVYMGWTFEYAKRMMRLIDNENLRWLEEPVIADDIDGYADLKASCQTPISGGEHEYTLFGFRQLLEKKAVDVVQFDTNRVGGITQAHKICALAEAFQIPVIPHAGQVHNFHISMSSINAPIVEYFPFWPVEIGNELFWYIFDGEPQAKDGYIELDDTKPGLGIELSEKYLKDFVIEVEGHHHHHH,soluble
14,MAHHHHHHMGNDEIFEDLFISDTEPEELYEELGPIGVGNYGSVIKARNRQTQAIAAIKLVLLVDKDERDFVQKEISILKKCVHPNIVRYYGAHKSLSKLWIVMEYCEGGSVDMVYKVLRHPLPENLIAYVCRQVLLGLQYLHANRKIHRDIKGGNILLTRDGDVKLADFGVSTELSHSLSRRNTFVGTLLWMSPEAILELDYDEKADLWSLGITLIEMAEGAPPYIDTHPARALFMIPKVDPPTLHDKDRWSPQMALFLKRLLIKDYRLRPTATAMLNDPFVAPEKIGTKEQMKAVIDEVLAKKEAMSPQRLHGETNSSATFVERTSTDTDGEDGVTNDTCTSGRAPTGAKVPANTSPVAMEAIDITGAHLFFHDGTLLPLPMLSTHDIGFDELGLGREGIGPFAKPVPDAESLLVPPEQRSTALHGSGGLAYTMHVTQTLKSMLYYHKQLPFFREVTDTEAIKSKELQLKYGSILKSIYRL,soluble
15,MRRNIRVTLGAATIVAALGLSGCSHPEFKRSSPPAPSLPPVTSSPLEAAPITPLPAPEALIDVLSRLADPAVPGTNKVQLIEGATPENAAALDRFTTALRDGSYLPMTFAANDIAWSDNKPSDVMATVVVTTAHPDNREFTFPMEFVSFKGGWQLSRQTAEMLLAMGNSPDSTPSATSPAPAPSPTPPG,soluble
16,MYFPIVALIGRYQDTGLDAPLTALAQMLTQAGRRVLVEAETARNAGVSGYPVADWDEIGRTATLAVVMGGDGTVLGAARHLAPYGVPLIGINHGRLGFITDIPLQDAHDALGRVLEGNYQAEDRMLLQGGVWRGEQQMYSASAVNDVVLNRAGRGGMIEVRVELDGAFMYTQRADGLIIATPTGSTAYSLSANGPILHPGMNAMVLVPVAPQTLSNRPIVIPDSGVLNMTLTAMGRVEIGASVHFDMQTWSDLQPGDRITVQRAPHIIRFVHPEGYSFFSTLRRKLHWNLMPQATDNLELEHHHHHH,not soluble
17,MSLNSTQMNKQVIDKYTQRHELYLEQLLNEIIIPAPQIRSALHYALFSGGKRIRPILVYLAGDLIDVDQGVLDIIAAALELTHCYSLIHDDLPAMDNDDLRRGKPSCHKAFDEATAILVGDGMQALAIEVLLMRLSPLLPAAQVVAITQVLVNASGISGMVSGQSLDLSELAKSSVTEEQLREIHLLKTGKLILACFEMVLAAQHEVSEQIKSALRTYGKHIGLVFQMQDDYLDLYAPTQILGKGRSSDQANQKTTFATLFNKQQLEEEIAVHYQIAMDSLRLFGSKAAALIELTKQLQNRSNLSEGHHHHHH,soluble
18,MSSKPRHDWFQSETDVTLTILKRGVPLDDCSVSLSDNNTLTVKQCDEILFYGQLSGQVKKDDLTVKCTAAKVEVRLPKFARNERWASLLKDGQGVAASVQSVSPNPESAPTTTVKKNWDAIEKQAVKEEEDESLEGDAAVNKMFRKMYNDASDDVRRAMMKSYSESNGTVLSTNWSEIGQKKTECQPPACMEYKEYEK,not soluble
19,GPLGSTRAKTQEEIKREEEQAIDEVLKIEFLELALGYQLISLADMKQGGDLLERIRGIRKKIASDYGFLMPQIRIRDNLQLPPTHYEIKLKGIVIGEGMVMPDKFLAMNTGFVNREIEGIPTKEPAFGMDALWIDAKNKEEAIIQGYTIIDPSTVIATHTSELVKKYAEDFITKDEVKSLLERLAKDYPTIVEESKKIPTGAIRSVLQALLHEKIPIKDMLTILETITDIAPLVQNDVNILTEQVRARLSRVITNAFKSEDGRLKFLTFSTDSEQFLLNKLRENGTSKSLLLNVGELQKLIEGVSEEAMKVLQKGIAPVILIVEPNLRKALSNQMEQARIDVVVLSHAELDPNSNFEALGTIHIN,soluble
